Test results from article PMC2268108.

Target: T1, KcsA K+ channel, wild type, P0A334
T1 chain: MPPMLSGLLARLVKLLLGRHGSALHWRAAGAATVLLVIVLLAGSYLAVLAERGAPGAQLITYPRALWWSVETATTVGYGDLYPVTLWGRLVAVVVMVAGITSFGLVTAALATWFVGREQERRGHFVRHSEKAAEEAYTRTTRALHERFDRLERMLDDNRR
Test: SDS-PAGE of the tetramer
Conditions: remark: other sources report otherwise

stoichiometry N: 4
B1: KcsA K+ channel, wild type, P0A334 1-160 (natural protein)
chain: MPPMLSGLLARLVKLLLGRHGSALHWRAAGAATVLLVIVLLAGSYLAVLAERGAPGAQLITYPRALWWSVETATTVGYGDLYPVTLWGRLVAVVVMVAGITSFGLVTAALATWFVGREQERRGHFVRHSEKAAEEAYTRTTRALHERFDRLERMLDDNRR
